The values below come from patent US20150344570A1 (published 2015).

For this assay, the target named is T1, FcγRIIa R (FcγRIIa, allotype with Arg at position 131), extracellular domain with C-terminal His tag (human, UniProt P12318 34-217).
T1 construct: extracellular domain; also called FcγRIIa R type; 2aR
T1 sequence (looked up): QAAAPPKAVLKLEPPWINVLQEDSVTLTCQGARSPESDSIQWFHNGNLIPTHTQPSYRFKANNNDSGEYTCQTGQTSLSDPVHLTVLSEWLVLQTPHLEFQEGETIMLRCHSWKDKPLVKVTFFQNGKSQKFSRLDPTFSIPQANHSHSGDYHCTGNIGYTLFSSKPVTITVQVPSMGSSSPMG
The assay is described as follows: SPR (Biacore), antibody captured on antigen peptide chip, FcγR as analyte; relative binding. In general terms: SPR reads the build-up and loss of mass on a sensor chip optically.

B1: GpH7-B3 variant Y296_10E/GpL16-k0 (antibody, human IgG1, kappa)
heavy: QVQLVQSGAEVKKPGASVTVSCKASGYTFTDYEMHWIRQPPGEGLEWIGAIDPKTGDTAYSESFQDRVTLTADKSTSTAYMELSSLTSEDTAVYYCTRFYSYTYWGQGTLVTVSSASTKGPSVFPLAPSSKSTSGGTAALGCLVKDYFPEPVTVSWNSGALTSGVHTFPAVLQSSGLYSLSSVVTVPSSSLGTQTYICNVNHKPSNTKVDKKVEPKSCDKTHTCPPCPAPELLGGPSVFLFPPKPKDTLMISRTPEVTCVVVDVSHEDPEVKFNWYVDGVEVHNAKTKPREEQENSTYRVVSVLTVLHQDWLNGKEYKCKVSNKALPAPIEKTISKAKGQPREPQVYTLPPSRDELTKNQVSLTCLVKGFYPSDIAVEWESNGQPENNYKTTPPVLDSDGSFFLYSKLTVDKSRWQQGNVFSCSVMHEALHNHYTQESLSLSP
light: DIVMTQSPLSLPVTPGEPASISCQASESLVHSNRNTYLHWYLQKPGQSPQLLIYKVSNRFSGVPDRFSGSGSGTDFTLKISRVEAEDVGVYYCSQNTHVPPTFGQGTKVEIERTVAAPSVFIFPPSDEQLKSGTASVVCLLNNFYPREAKVQWKVDNALQSGNSQESVTEQDSKDSTYSLSSTLTLSKADYEKHKVYACEVTHQGLSSPVTKSFNRGEC
notes: also called Ho Ab
As for B1, the Ho/Con_2aR was 90.2 % of GpH7-B3/GpL16-k0 (=100).

B2: GpH7-A5/GpH7-B3 variant S337_02A/GpL16-k0 (antibody, human IgG1, kappa)
heavy 1: not shown
heavy 2: not shown
light: B1 light
notes: also called He Ab
B2: the He/Con_2aR is 105 % of GpH7-A5/GpH7-B3/GpL16-k0 (=100).

B3: GpH7-A5/GpH7-B3 variant S239_07I/GpL16-k0 (antibody, human IgG1, kappa)
heavy 1: not shown
heavy 2: not shown
light: B1 light
notes: also called He Ab
In the case of B3, the He/Con_2aR was 102 % of GpH7-A5/GpH7-B3/GpL16-k0 (=100).

B4: GpH7-B3 variant Y296_18N/GpL16-k0 (antibody, human IgG1, kappa)
heavy: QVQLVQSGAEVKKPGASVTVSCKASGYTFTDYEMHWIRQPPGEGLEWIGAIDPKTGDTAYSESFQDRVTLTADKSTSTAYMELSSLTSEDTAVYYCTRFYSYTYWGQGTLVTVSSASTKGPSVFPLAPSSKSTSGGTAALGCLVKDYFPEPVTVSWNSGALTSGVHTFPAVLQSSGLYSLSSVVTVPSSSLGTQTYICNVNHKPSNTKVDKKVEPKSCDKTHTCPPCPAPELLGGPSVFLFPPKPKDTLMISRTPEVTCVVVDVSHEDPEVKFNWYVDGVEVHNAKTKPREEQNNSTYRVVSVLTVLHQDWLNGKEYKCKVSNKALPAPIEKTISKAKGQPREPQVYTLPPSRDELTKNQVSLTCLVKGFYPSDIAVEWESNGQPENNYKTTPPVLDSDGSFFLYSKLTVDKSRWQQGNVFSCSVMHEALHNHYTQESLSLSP
light: B1 light
notes: also called Ho Ab
For the molecule B4, the Ho/Con_2aR is 93.7 % of GpH7-B3/GpL16-k0 (=100).

B5: GpH7-A5/GpH7-B3 variant Q295_06M/GpL16-k0 (antibody, human IgG1, kappa)
heavy 1: not shown
heavy 2: not shown
light: B1 light
notes: also called He Ab
Turning to B5, the He/Con_2aR is 102 % of GpH7-A5/GpH7-B3/GpL16-k0 (=100).

B6: GpH7-A5/GpH7-B3 variant Q295_10E/GpL16-k0 (antibody, human IgG1, kappa)
heavy 1: not shown
heavy 2: not shown
light: B1 light
notes: also called He Ab
Consider B6, for which the He/Con_2aR was 102 % of GpH7-A5/GpH7-B3/GpL16-k0 (=100).

B7: GpH7-A5/GpH7-B3 variant P331_10E/GpL16-k0 (antibody, human IgG1, kappa)
heavy 1: not shown
heavy 2: not shown
light: B1 light
notes: also called He Ab
For B7, the He/Con_2aR is 113 % of GpH7-A5/GpH7-B3/GpL16-k0 (=100).

B8: GpH7-A5/GpH7-B3 variant P331_15Y/GpL16-k0 (antibody, human IgG1, kappa)
heavy 1: not shown
heavy 2: not shown
light: B1 light
notes: also called He Ab
With B8, the He/Con_2aR was 112 % of GpH7-A5/GpH7-B3/GpL16-k0 (=100).

B9: GpH7-A5/GpH7-B3 variant S239_06M/GpL16-k0 (antibody, human IgG1, kappa)
heavy 1: not shown
heavy 2: not shown
light: B1 light
notes: also called He Ab
Turning to B9, the He/Con_2aR was 101 % of GpH7-A5/GpH7-B3/GpL16-k0 (=100).

B10: GpH7-B3 variant Y296_19Q/GpL16-k0 (antibody, human IgG1, kappa)
heavy: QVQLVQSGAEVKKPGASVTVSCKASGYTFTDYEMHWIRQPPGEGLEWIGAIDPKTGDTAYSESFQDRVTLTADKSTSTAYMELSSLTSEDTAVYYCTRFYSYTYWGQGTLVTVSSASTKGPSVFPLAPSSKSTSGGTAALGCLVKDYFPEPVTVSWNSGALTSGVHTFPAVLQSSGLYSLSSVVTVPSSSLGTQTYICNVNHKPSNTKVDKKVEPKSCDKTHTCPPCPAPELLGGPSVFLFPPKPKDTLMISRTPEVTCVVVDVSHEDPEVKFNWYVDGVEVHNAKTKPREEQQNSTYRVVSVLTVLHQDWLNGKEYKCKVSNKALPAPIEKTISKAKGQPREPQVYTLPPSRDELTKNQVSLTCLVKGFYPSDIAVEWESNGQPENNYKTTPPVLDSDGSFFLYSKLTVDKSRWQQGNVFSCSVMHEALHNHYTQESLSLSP
light: B1 light
notes: also called Ho Ab
Take B10: the Ho/Con_2aR is 88.9 % of GpH7-B3/GpL16-k0 (=100).

B11: GpH7-A5/GpH7-B3 variant S337_19Q/GpL16-k0 (antibody, human IgG1, kappa)
heavy 1: not shown
heavy 2: not shown
light: B1 light
notes: also called He Ab
With B11, the He/Con_2aR was 106 % of GpH7-A5/GpH7-B3/GpL16-k0 (=100).

B12: GpH7-A5/GpH7-B3 variant S337_08L/GpL16-k0 (antibody, human IgG1, kappa)
heavy 1: not shown
heavy 2: not shown
light: B1 light
notes: also called He Ab
Turning to B12, the He/Con_2aR is 107 % of GpH7-A5/GpH7-B3/GpL16-k0 (=100).

B13: GpH7-B3 variant Y300_18N/GpL16-k0 (antibody, human IgG1, kappa)
heavy: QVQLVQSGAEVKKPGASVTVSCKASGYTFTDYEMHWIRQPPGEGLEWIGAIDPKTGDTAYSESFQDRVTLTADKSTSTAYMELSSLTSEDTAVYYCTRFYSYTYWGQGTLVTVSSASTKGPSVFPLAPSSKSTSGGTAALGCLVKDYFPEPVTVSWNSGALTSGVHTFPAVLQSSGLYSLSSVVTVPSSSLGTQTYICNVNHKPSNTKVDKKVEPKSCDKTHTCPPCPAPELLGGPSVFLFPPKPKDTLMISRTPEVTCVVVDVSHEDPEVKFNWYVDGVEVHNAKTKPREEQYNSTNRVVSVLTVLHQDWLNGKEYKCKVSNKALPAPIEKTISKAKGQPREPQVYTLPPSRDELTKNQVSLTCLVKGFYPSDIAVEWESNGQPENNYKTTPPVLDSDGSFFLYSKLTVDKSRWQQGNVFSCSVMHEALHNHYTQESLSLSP
light: B1 light
notes: also called Ho Ab
In the case of B13, the Ho/Con_2aR is 87.6 % of GpH7-B3/GpL16-k0 (=100).

B14: GpH7-A5/GpH7-B3 variant S324_06M/GpL16-k0 (antibody, human IgG1, kappa)
heavy 1: not shown
heavy 2: not shown
light: B1 light
notes: also called He Ab
With B14, the He/Con_2aR is 123 % of GpH7-A5/GpH7-B3/GpL16-k0 (=100).

B15: GpH7-B3 variant Y296_20W/GpL16-k0 (antibody, human IgG1, kappa)
heavy: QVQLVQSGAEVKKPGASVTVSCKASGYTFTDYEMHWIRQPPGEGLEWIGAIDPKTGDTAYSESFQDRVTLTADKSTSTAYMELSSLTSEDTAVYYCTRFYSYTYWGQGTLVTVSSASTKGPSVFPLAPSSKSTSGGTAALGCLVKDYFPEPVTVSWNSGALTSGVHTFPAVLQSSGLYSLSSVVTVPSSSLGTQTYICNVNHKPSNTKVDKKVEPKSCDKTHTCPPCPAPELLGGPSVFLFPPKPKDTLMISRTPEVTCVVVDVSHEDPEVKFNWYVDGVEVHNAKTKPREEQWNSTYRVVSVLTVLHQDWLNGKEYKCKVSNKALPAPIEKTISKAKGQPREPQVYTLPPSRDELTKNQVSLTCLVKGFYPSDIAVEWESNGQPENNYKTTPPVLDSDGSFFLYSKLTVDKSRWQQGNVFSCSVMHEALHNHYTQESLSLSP
light: B1 light
notes: also called Ho Ab
In the case of B15, the Ho/Con_2aR was 107 % of GpH7-B3/GpL16-k0 (=100).

B16: GpH7-A5/GpH7-B3 variant S267_09D/GpL16-k0 (antibody, human IgG1, kappa)
heavy 1: not shown
heavy 2: not shown
light: B1 light
notes: also called He Ab
As to B16, the He/Con_2aR is 173 % of GpH7-A5/GpH7-B3/GpL16-k0 (=100).

B17: GpH7-A5/GpH7-B3 variant S337_12R/GpL16-k0 (antibody, human IgG1, kappa)
heavy 1: not shown
heavy 2: not shown
light: B1 light
notes: also called He Ab
Take B17: the He/Con_2aR is 107 % of GpH7-A5/GpH7-B3/GpL16-k0 (=100).

B18: GpH7-A5/GpH7-B3 variant P331_07I/GpL16-k0 (antibody, human IgG1, kappa)
heavy 1: not shown
heavy 2: not shown
light: B1 light
notes: also called He Ab
On to B18, for which the He/Con_2aR was 110 % of GpH7-A5/GpH7-B3/GpL16-k0 (=100).

B19: GpH7-A5/GpH7-B3 variant S324_04F/GpL16-k0 (antibody, human IgG1, kappa)
heavy 1: not shown
heavy 2: not shown
light: B1 light
notes: also called He Ab
Consider B19, for which the He/Con_2aR is 104 % of GpH7-A5/GpH7-B3/GpL16-k0 (=100).

B20: GpH7-A5/GpH7-B3 variant S337_09D/GpL16-k0 (antibody, human IgG1, kappa)
heavy 1: not shown
heavy 2: not shown
light: B1 light
notes: also called He Ab
As for B20, the He/Con_2aR was 115 % of GpH7-A5/GpH7-B3/GpL16-k0 (=100).

B21: GpH7-A5/GpH7-B3 variant S337_15Y/GpL16-k0 (antibody, human IgG1, kappa)
heavy 1: not shown
heavy 2: not shown
light: B1 light
notes: also called He Ab
B21: the He/Con_2aR was 105 % of GpH7-A5/GpH7-B3/GpL16-k0 (=100).

B22: GpH7-A5/GpH7-B3 variant S267_06M/GpL16-k0 (antibody, human IgG1, kappa)
heavy 1: not shown
heavy 2: not shown
light: B1 light
notes: also called He Ab
Consider B22, for which the He/Con_2aR is 122 % of GpH7-A5/GpH7-B3/GpL16-k0 (=100).

B23: GpH7-A5/GpH7-B3 variant S337_06M/GpL16-k0 (antibody, human IgG1, kappa)
heavy 1: not shown
heavy 2: not shown
light: B1 light
notes: also called He Ab
Consider B23, for which the He/Con_2aR was 105 % of GpH7-A5/GpH7-B3/GpL16-k0 (=100).

B24: GpH7-B3 variant Y296_13S/GpL16-k0 (antibody, human IgG1, kappa)
heavy: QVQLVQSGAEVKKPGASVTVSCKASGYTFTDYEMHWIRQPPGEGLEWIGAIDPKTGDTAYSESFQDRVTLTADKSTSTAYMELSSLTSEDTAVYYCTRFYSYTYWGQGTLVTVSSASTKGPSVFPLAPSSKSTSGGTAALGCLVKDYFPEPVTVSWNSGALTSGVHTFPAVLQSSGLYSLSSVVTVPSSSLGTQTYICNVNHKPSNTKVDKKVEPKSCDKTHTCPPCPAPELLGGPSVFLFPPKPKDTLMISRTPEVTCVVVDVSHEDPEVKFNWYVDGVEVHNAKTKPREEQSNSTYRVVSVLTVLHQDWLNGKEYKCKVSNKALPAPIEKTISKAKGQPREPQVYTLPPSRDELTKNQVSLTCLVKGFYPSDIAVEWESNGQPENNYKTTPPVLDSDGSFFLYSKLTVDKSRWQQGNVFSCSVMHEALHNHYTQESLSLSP
light: B1 light
notes: also called Ho Ab
As to B24, the Ho/Con_2aR is 88.1 % of GpH7-B3/GpL16-k0 (=100).

B25: GpH7-A5/GpH7-B3 variant S267_19Q/GpL16-k0 (antibody, human IgG1, kappa)
heavy 1: not shown
heavy 2: not shown
light: B1 light
notes: also called He Ab
Regarding B25, the He/Con_2aR was 135 % of GpH7-A5/GpH7-B3/GpL16-k0 (=100).

B26: GpH7-B3 variant Y296_16H/GpL16-k0 (antibody, human IgG1, kappa)
heavy: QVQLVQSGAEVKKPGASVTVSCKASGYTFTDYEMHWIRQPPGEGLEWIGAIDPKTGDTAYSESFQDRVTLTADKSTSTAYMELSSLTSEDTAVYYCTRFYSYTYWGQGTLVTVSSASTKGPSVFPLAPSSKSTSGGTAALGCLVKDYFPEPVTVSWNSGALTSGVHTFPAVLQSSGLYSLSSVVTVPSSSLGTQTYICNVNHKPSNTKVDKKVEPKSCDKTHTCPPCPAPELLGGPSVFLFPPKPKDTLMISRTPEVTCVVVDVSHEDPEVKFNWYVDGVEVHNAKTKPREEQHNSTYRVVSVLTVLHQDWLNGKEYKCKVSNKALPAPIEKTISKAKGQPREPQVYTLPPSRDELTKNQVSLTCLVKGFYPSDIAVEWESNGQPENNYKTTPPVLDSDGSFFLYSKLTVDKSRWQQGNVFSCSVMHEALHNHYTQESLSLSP
light: B1 light
notes: also called Ho Ab
As to B26, the Ho/Con_2aR is 89.5 % of GpH7-B3/GpL16-k0 (=100).

B27: GpH7-A5/GpH7-B3 variant S337_10E/GpL16-k0 (antibody, human IgG1, kappa)
heavy 1: not shown
heavy 2: not shown
light: B1 light
notes: also called He Ab
B27: the He/Con_2aR was 112 % of GpH7-A5/GpH7-B3/GpL16-k0 (=100).
